Measured values as given in IntAct's records for PubMed 25231868.

B1: DNA endonuclease SAE2 (Saccharomyces cerevisiae), P46946 (parent)
chain: MVTGEENVYLKSSLSILKELSLDELLNVQYDVTTLIAKRVQALQNRNKCVLEEPNSKLAEILCHEKNAPQQSSQTSAGPGEQDSEDFILTQFDEDIKKESAEVHYRNENKHTVQLPLVTMPPNRHKRKISEFSSPLNGLNNLSDLEDCSDTVIHEKDNDKENKTRKLLGIELENPESTSPNLYKNVKDNFLFDFNTNPLTKRAWILEDFRPNEDIAPVKRGRRKLERFYAQVGKPEDSKHRSLSVVIESQNSDYEFAFDNLRNRSKSPPGFGRLDFPSTQEGNEDKKKSQEIIRRKTKYRFLMASNNKIPPYEREYVFKREQLNQIVDDGCFFWSDKLLQIYARC
partner: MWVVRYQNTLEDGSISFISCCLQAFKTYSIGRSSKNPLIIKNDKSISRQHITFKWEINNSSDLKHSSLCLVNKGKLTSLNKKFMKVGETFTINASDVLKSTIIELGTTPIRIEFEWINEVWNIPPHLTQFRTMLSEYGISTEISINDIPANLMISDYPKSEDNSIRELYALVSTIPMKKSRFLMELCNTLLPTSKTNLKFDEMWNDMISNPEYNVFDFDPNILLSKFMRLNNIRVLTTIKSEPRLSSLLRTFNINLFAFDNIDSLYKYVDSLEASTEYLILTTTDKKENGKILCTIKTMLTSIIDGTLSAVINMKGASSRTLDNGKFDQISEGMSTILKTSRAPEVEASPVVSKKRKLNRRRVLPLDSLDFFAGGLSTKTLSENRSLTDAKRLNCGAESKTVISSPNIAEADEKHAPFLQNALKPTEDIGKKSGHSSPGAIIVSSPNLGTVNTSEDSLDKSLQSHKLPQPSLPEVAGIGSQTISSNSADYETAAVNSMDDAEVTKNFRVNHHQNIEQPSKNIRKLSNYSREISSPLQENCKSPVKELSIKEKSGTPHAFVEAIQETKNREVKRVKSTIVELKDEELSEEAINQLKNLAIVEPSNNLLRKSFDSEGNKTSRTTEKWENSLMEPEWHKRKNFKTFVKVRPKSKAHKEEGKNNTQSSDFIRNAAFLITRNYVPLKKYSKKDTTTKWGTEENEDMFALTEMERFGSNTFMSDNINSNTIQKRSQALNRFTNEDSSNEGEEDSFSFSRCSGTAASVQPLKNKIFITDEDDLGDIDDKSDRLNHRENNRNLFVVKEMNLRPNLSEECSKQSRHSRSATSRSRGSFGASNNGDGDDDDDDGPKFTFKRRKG

Variants of: B1
Details: with xrs2_yeast XRS2, P33301

| effect of a mutation on the interaction | Variant |
| --- | --- |
| disrupting interaction strength | MVTGEENVYLKSSLSILKELSLDELLNVQYDVTTLIAKRVQALQNRNKCVLEEPNSKLAEILCHEKNAPQQSSQTSAGPGEQDSEDFILTQFDEDIKKESAEVHYRNENKHTVQLPLVTMPPNRHKRKISEFSSPLNGLNNLSDLEDCSDTVIHEKDNDKENKTRKLLGIELENPESTSPNLYKNVKDNFLFDFNTNPLTKRAWILEDFRPNEDIAPVKRGRRKLERFYAQVGKPEDSKHRSLSVVIESQNSDYEFAFDNLRNRSKAAPGFGRLDFPSTQEGNEDKKKSQEIIRRKTKYRFLMASNNKIPPYEREYVFKREQLNQIVDDGCFFWSDKLLQIYARC [S267A;P268A] |
| decreasing interaction strength | MVTGEENVYLKSSLSILKELSLDELLNVQYDVTTLIAKRVQALQNRNKCVLEEPNSKLAEILCHEKNAPQQSSQTSAGPGEQDSEDFILTQFDEDIKKESAEVHYRNENKHTVQLPLVTMPPNRHKRKISEFSSPLNGLNNLSDLEDCSDTVIHEKDNDKENKTRKLLGIELENPESTSPNLYKNVKDNFLFDFNTNPLTKRAWILEDFRPNEDIAPVKRGRRKLERFYAQVGKPEDSKHRSLSVVIESQNSDYEFAFDNLRNRSKSPPGFGRLDFAAAQEGNEDKKKSQEIIRRKTKYRFLMASNNKIPPYEREYVFKREQLNQIVDDGCFFWSDKLLQIYARC [P277A;S278A;T279A] |
| decreasing interaction strength | MVTGEENVYLKSSLSILKELSLDELLNVQYDVTTLIAKRVQALQNRNKCVLEEPNSKLAEILCHEKNAPQQSSQTSAGPGEQDSEDFILTQFDEDIKKESAEVHYRNENKHTVQLPLVTMPPNRHKRKISEFSSPLNGLNNLSDLEDCSDTVIHEKDNDKENKTRKLLGIELENPESTSPNLYKNVKDNFLFDFNTNPLTKRAWILEDFRPNEDIAPVKRGRRKLERFYAQVGKPEDSKHRSLSVVIESQNSDYEFAFDNLRNRSKSPPDFGRLDFPSTQEGNEDKKKSQEIIRRKTKYRFLMASNNKIPPYEREYVFKREQLNQIVDDGCFFWSDKLLQIYARC [G270D] |
